Experimental findings from article PMC11969024 (2025) are described below.

B1: peptide HD2 (from tick evasin EVA4) / CCL17 (biotinylated, synthetic) (parent complex)
chain 1: EEDDYTAYAPLTCYFT
chain 2: ARGTNVGRECCLEYFKGAIPLRKLKTWYQTSEDCSRDAIVFVTVQGRAICSDPNNKRVKNAVKYLQSLERS
B2: peptide HD2 (from tick evasin EVA4) / CCL8 (biotinylated, synthetic) (parent complex)
chain 1: EEDDYTAYAPLTCYFT
chain 2: QPDSVSIPITCCFNVINRKIPIQRLESYTRITNIQCPKEAVIFKTKRGKEVCADPKERWVRDSMKHLDQIFQNLKP

Variants of B1 are the subject of one assay.
With chain 1 EEDDYTAYAPLTSYFT, the enrichment was -8.83 log2 (difference from the parental peptide).

On to chain 1 EEDDYTAYAPLTNYFT, for which the enrichment is -8.31 log2 (difference from the parental peptide).

In the case of chain 1 EEDDYTAYAPLTFYFT, the enrichment is -5.92 log2 (difference from the parental peptide).

In the case of chain 1 EEDDYTAYAPLTQYFT, the enrichment was -6.89 log2 (difference from the parental peptide).

As for chain 1 EEDDYTAYAPLTTYFT, the enrichment was -5.42 log2 (difference from the parental peptide).

For the variant chain 1 EEDDYTAYAPLTMYFT, the enrichment is -2.5 log2 (difference from the parental peptide).

As to chain 1 EEDDYTAYAPLTVYFT, the enrichment is -2.69 log2 (difference from the parental peptide).

With chain 1 ENDDYTAYAPLTCYFT, the enrichment was -1.61 log2 (difference from the parental peptide).

In the case of chain 1 EMDDYTAYAPLTCYFT, the enrichment was -1.82 log2 (difference from the parental peptide).

For chain 1 ESDDYTAYAPLTCYFT, the enrichment is -1.29 log2 (difference from the parental peptide).

In the case of chain 1 ETDDYTAYAPLTCYFT, the enrichment is -2.14 log2 (difference from the parental peptide).

chain 1 EHDDYTAYAPLTCYFT: the enrichment is -1.27 log2 (difference from the parental peptide).

chain 1 EDDDYTAYAPLTCYFT: the enrichment was 1.45 log2 (difference from the parental peptide).

In the case of chain 1 EKDDYTAYAPLTCYFT, the enrichment is -0.857 log2 (difference from the parental peptide).

chain 1 EWDDYTAYAPLTCYFT: the enrichment is -2.45 log2 (difference from the parental peptide).

Turning to chain 1 EEDDYRAYAPLTCYFT, the enrichment was 0.942 log2 (difference from the parental peptide).

As to chain 1 EEDDYHAYAPLTCYFT, the enrichment is 0.317 log2 (difference from the parental peptide).

Take chain 1 EEDDYYAYAPLTCYFT: the enrichment is 0.0769 log2 (difference from the parental peptide).

Turning to chain 1 EEDDYVAYAPLTCYFT, the enrichment is -4.25 log2 (difference from the parental peptide).

On to chain 1 EEDDYAAYAPLTCYFT, for which the enrichment is 1.8 log2 (difference from the parental peptide).

In the case of chain 1 EEDDYPAYAPLTCYFT, the enrichment is -4.51 log2 (difference from the parental peptide).

Consider chain 1 EEDDYLAYAPLTCYFT, for which the enrichment is -1.57 log2 (difference from the parental peptide).

In the case of chain 1 EEDDYTAVAPLTCYFT, the enrichment is -8.87 log2 (difference from the parental peptide).

chain 1 EEDDYTACAPLTCYFT: the enrichment was -9.78 log2 (difference from the parental peptide).

chain 1 EEDDYTALAPLTCYFT: the enrichment is -8.14 log2 (difference from the parental peptide).

As to chain 1 EEDDYTAWAPLTCYFT, the enrichment was -3.5 log2 (difference from the parental peptide).

In the case of chain 1 EEDDYTAHAPLTCYFT, the enrichment was -5.35 log2 (difference from the parental peptide).

Regarding chain 1 EEDDYTAYAPLICYFT, the enrichment was 0.0487 log2 (difference from the parental peptide).

Turning to chain 1 EEDDYTAYAPLYCYFT, the enrichment was -0.855 log2 (difference from the parental peptide).

Take chain 1 EEDDYTAYAPLPCYFT: the enrichment is -4.02 log2 (difference from the parental peptide).

For the variant chain 1 EEDDYTAYAPLGCYFT, the enrichment was -10.4 log2 (difference from the parental peptide).

Turning to chain 1 EEDDYTAYAPLDCYFT, the enrichment was -7.76 log2 (difference from the parental peptide).

With chain 1 EEDDYTAYAPLMCYFT, the enrichment is 1.75 log2 (difference from the parental peptide).

For the variant chain 1 EEDDYTAYAPLSCYFT, the enrichment is -3.76 log2 (difference from the parental peptide).

In the case of chain 1 EEDDYTAYAPLNCYFT, the enrichment was -3.22 log2 (difference from the parental peptide).

For the variant chain 1 EEDDYTAYAPLKCYFT, the enrichment is -2.78 log2 (difference from the parental peptide).

Turning to chain 1 EEDDYTAYAPLTCCFT, the enrichment was -7.42 log2 (difference from the parental peptide).

On to chain 1 EEDDYTAYAPLTCTFT, for which the enrichment is -3.79 log2 (difference from the parental peptide).

On to chain 1 EEDDYTAYAPLTCLFT, for which the enrichment is -4.61 log2 (difference from the parental peptide).

Regarding chain 1 EEYDYTAYAPLTCYFT, the enrichment is -3.2 log2 (difference from the parental peptide).

As to chain 1 EEFDYTAYAPLTCYFT, the enrichment is -5.06 log2 (difference from the parental peptide).

Turning to chain 1 EEADYTAYAPLTCYFT, the enrichment was -2.38 log2 (difference from the parental peptide).

On to chain 1 EEHDYTAYAPLTCYFT, for which the enrichment was -2.9 log2 (difference from the parental peptide).

Consider chain 1 EEEDYTAYAPLTCYFT, for which the enrichment is 0.618 log2 (difference from the parental peptide).

As to chain 1 EELDYTAYAPLTCYFT, the enrichment is -4.35 log2 (difference from the parental peptide).

chain 1 EETDYTAYAPLTCYFT: the enrichment is -2.29 log2 (difference from the parental peptide).

For the variant chain 1 EEDDGTAYAPLTCYFT, the enrichment is -7.21 log2 (difference from the parental peptide).

Regarding chain 1 EEDDMTAYAPLTCYFT, the enrichment was -3.16 log2 (difference from the parental peptide).

Consider chain 1 EEDDWTAYAPLTCYFT, for which the enrichment was 0.266 log2 (difference from the parental peptide).

Regarding chain 1 EEDDSTAYAPLTCYFT, the enrichment was -7.62 log2 (difference from the parental peptide).

As to chain 1 EEDDITAYAPLTCYFT, the enrichment was -6.15 log2 (difference from the parental peptide).

As to chain 1 EEDDFTAYAPLTCYFT, the enrichment was -2.8 log2 (difference from the parental peptide).

For the variant chain 1 EEDDYTAYAWLTCYFT, the enrichment is -5.95 log2 (difference from the parental peptide).

Turning to chain 1 EEDDYTAYADLTCYFT, the enrichment was -8.51 log2 (difference from the parental peptide).

On to chain 1 EEDDYTAYAALTCYFT, for which the enrichment was -8.82 log2 (difference from the parental peptide).

As to chain 1 EEDDYTAYAELTCYFT, the enrichment is -6.42 log2 (difference from the parental peptide).

As for chain 1 EEDDYTAYAGLTCYFT, the enrichment is -9.32 log2 (difference from the parental peptide).

Consider chain 1 EEDDYTAYAPLTCYLT, for which the enrichment was 0.236 log2 (difference from the parental peptide).

With chain 1 EEDDYTAYAPLTCYMT, the enrichment was 0.0931 log2 (difference from the parental peptide).

Regarding chain 1 EEDDYTAYAPLTCYYT, the enrichment is 2.54 log2 (difference from the parental peptide).

chain 1 EEDDYTAYAPLTCYAT: the enrichment is 0.597 log2 (difference from the parental peptide).

For the variant chain 1 EEDDYTAYAPLTCYTT, the enrichment was 0.347 log2 (difference from the parental peptide).

Take chain 1 EEDDYTAYAPLTCYNT: the enrichment was -1.55 log2 (difference from the parental peptide).

With chain 1 EEDDYTAYAPLTCYPT, the enrichment was 1.23 log2 (difference from the parental peptide).

As to chain 1 EEDDYTAYAPLTCYVT, the enrichment was 1.08 log2 (difference from the parental peptide).

On to chain 1 EEDDYTAYAPLTCYHT, for which the enrichment is 0.105 log2 (difference from the parental peptide).

chain 1 EEDDYTAYAPLTCYRT: the enrichment was 0.0833 log2 (difference from the parental peptide).

Consider chain 1 EEDDYTAYAPLTCYQT, for which the enrichment was -0.329 log2 (difference from the parental peptide).

For the variant chain 1 EEDDYTAYAPLTCYKT, the enrichment was 0.71 log2 (difference from the parental peptide).

Turning to chain 1 EEDRYTAYAPLTCYFT, the enrichment is -4.61 log2 (difference from the parental peptide).

chain 1 EEDFYTAYAPLTCYFT: the enrichment was -6.96 log2 (difference from the parental peptide).

Consider chain 1 EEDMYTAYAPLTCYFT, for which the enrichment is -3.6 log2 (difference from the parental peptide).

For chain 1 EEDNYTAYAPLTCYFT, the enrichment is -3.02 log2 (difference from the parental peptide).

In the case of chain 1 EEDKYTAYAPLTCYFT, the enrichment is -4.98 log2 (difference from the parental peptide).

In the case of chain 1 EEDSYTAYAPLTCYFT, the enrichment was -4.05 log2 (difference from the parental peptide).

On to chain 1 EEDPYTAYAPLTCYFT, for which the enrichment was -2.13 log2 (difference from the parental peptide).

As for chain 1 EEDIYTAYAPLTCYFT, the enrichment was -4.19 log2 (difference from the parental peptide).

As for chain 1 EEDDYTAYVPLTCYFT, the enrichment is -9.17 log2 (difference from the parental peptide).

As for chain 1 EEDDYTAYGPLTCYFT, the enrichment is -7.21 log2 (difference from the parental peptide).

Turning to chain 1 EEDDYTAYYPLTCYFT, the enrichment is -8.18 log2 (difference from the parental peptide).

As to chain 1 EEDDYTAYEPLTCYFT, the enrichment is -1.38 log2 (difference from the parental peptide).

For chain 1 EEDDYTAYWPLTCYFT, the enrichment is -4.5 log2 (difference from the parental peptide).

As for chain 1 EEDDYTAYAPLTCYFV, the enrichment is -0.108 log2 (difference from the parental peptide).

On to chain 1 EEDDYTAYAPLTCYFG, for which the enrichment is 0.943 log2 (difference from the parental peptide).

As for chain 1 EEDDYTAYAPLTCYFM, the enrichment is 0.118 log2 (difference from the parental peptide).

As for chain 1 EEDDYTAYAPLTCYFA, the enrichment is 1.13 log2 (difference from the parental peptide).

Turning to chain 1 EEDDYTAYAPLTCYFC, the enrichment is -5.46 log2 (difference from the parental peptide).

Regarding chain 1 EEDDYTAYAPLTCYFR, the enrichment was -1.43 log2 (difference from the parental peptide).

For the variant chain 1 EEDDYTAYAPLTCYFP, the enrichment is 1.33 log2 (difference from the parental peptide).

Regarding chain 1 EEDDYTGYAPLTCYFT, the enrichment was 2.15 log2 (difference from the parental peptide).

In the case of chain 1 EEDDYTFYAPLTCYFT, the enrichment was -3.04 log2 (difference from the parental peptide).

As for chain 1 EEDDYTEYAPLTCYFT, the enrichment was -0.527 log2 (difference from the parental peptide).

chain 1 EEDDYTNYAPLTCYFT: the enrichment was 2.1 log2 (difference from the parental peptide).

In the case of chain 1 EEDDYTSYAPLTCYFT, the enrichment is 0.977 log2 (difference from the parental peptide).

Regarding chain 1 EEDDYTMYAPLTCYFT, the enrichment was 1.3 log2 (difference from the parental peptide).

Take chain 1 EEDDYTDYAPLTCYFT: the enrichment is 0.474 log2 (difference from the parental peptide).

Regarding chain 1 AEDDYTAYAPLTCYFT, the enrichment was 0.0959 log2 (difference from the parental peptide).

Consider chain 1 NEDDYTAYAPLTCYFT, for which the enrichment was 0.681 log2 (difference from the parental peptide).

Turning to chain 1 MEDDYTAYAPLTCYFT, the enrichment is 0.0225 log2 (difference from the parental peptide).

chain 1 IEDDYTAYAPLTCYFT: the enrichment was -0.523 log2 (difference from the parental peptide).

Turning to chain 1 DEDDYTAYAPLTCYFT, the enrichment was 2.62 log2 (difference from the parental peptide).

For the variant chain 1 VEDDYTAYAPLTCYFT, the enrichment was -0.847 log2 (difference from the parental peptide).

As to chain 1 EEDDYTAYAPKTCYFT, the enrichment was 2.96 log2 (difference from the parental peptide).

On to chain 1 EEDDYTAYAPNTCYFT, for which the enrichment is -6.23 log2 (difference from the parental peptide).

As for chain 1 EEDDYTAYAPDTCYFT, the enrichment is -9.19 log2 (difference from the parental peptide).

As to chain 1 EEDDYTAYAPATCYFT, the enrichment is -1.12 log2 (difference from the parental peptide).

On to chain 1 EEDDYTAYAPWTCYFT, for which the enrichment was -0.813 log2 (difference from the parental peptide).

As for chain 1 EEDDYTAYAPETCYFT, the enrichment was -4.46 log2 (difference from the parental peptide).

Variants of B2 are the subject of another assay.
In the case of chain 1 E1R, the enrichment was -2.91 log2 (difference from the parental peptide).

Take chain 1 Y8D: the enrichment was -7.06 log2 (difference from the parental peptide).

For the variant chain 1 T12H, the enrichment was -0.0146 log2 (difference from the parental peptide).

Turning to chain 1 E2T, the enrichment is -1.89 log2 (difference from the parental peptide).

Turning to chain 1 T6I, the enrichment was -5.53 log2 (difference from the parental peptide).
